One protein from doi:10.1101/2024.12.03.626531, “Lineage–specific amino acids define functional attributes of the protomer-protomer interfaces for the Rad51 and Dmc1 recombinases” (bioRxiv, 2024) can be followed below.

The data set deals with the molecule itself. In words: cryo-EM structure; helical filament: ScDmc1 5 µM with 0.25 µM 96-mer ssDNA in HR buffer supplemented with 1.5 mM CaCl2, 30°C for 5 minutes; 8 mM CHAPSO added before freezing.

B1: S. cerevisiae Dmc1 (natural protein, UniProt P25453 1-334, looked up)
chain: MSVTGTEIDSDTAKNILSVDELQNYGINASDLQKLKSGGIYTVNTVLSTTRRHLCKIKGLSEVKVEKIKEAAGKIIQVGFIPATVQLDIRQRVYSLSTGSKQLDSILGGGIMTMSITEVFGEFRCGKTQMSHTLCVTTQLPREMGGGEGKVAYIDTEGTFRPERIKQIAEGYELDPESCLANVSYARALNSEHQMELVEQLGEELSSGDYRLIVVDSIMANFRVDYCGRGELSERQQKLNQHLFKLNRLAEEFNVAVFLTNQVQSDPGASALFASADGRKPIGGHVLAHASATRILLRKGRGDERVAKLQDSPDMPEKECVYVIGEKGITDSSD
notes: Dmc1 meiotic recombinase, Saccharomyces cerevisiae, full-length wild type; Helical filament on a 96-nt ssDNA with ATP; 6.35 monomers per turn; Expressed as 6XHis-ScDmc1; no removal of the tag is described; also called ScDmc1; yeast Dmc1; source: E. coli BL21 (DE3) Rosetta2, purified (Talon resin, heparin sepharose)
For B1, the binding result is on record as “binds”.
